Source: the RNAGym collection of RNA variant scans (doi:10.1073/pnas.2313332121)

B1: TPR t1 (parent)
chain: GACCAAUCUGCCCUCAGAGCUCGAGAACAUCUUCGGAUGCAGAGGAGGCAGGCUUCGGUGGCGCGAUAGCGCCAACGUCCUCAACCUCCAAUGCAUCCCACCACAUGAUGAUGCCUGAAGAGCCUUGGUUUUUUG

Variants of: B1
Experiment: polymerase ribozyme fitness, log enrichment relative to wild type (log ratio); higher = more active; in vitro selection for triplet polymerase activity
Method in brief: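 Fitness measures genotype enrichment against wild-type enrichment on a logarithmic scale, with inverse-variance-weighted averaging of replicates. The logarithm is base 2, and genotypes were kept only with ≥10 input reads and ≥1 read per output in Illumina sequencing. The sequenced libraries came from one triplicate in vitro selection round, including frozen incubation at −7 °C, of PCR-built, transcribed mutant libraries of each subunit of a heterodimeric triplet polymerase ribozyme.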

Variant | polymerase ribozyme fitness (log ratio)
GGCCAAUCUGCCGUCAGAGCUCGAGAACAUCUUCGGUUGCAGAGGAGGAAGGAUUCGGUGGCGCGAUAGCGCCAACGUCCUCAACCUCCAAUGCAUCCCGCCACAUGAUGAUGACUGAAGAGCAUUGGUUUUUUG [A2G C13G A37U C49A C53A A100G C114A C124A] | -7.24
GGCCAAUCUGGCCUCAGAGCUCGAGAACAUCUUCGGAUGCAAAGGAGGCAGGCUUCGGUGGCGCGAUAGCGCCAACGUCCUCAACCUCGAAUGCAUCCCACCACAUGAUGAUGCCUGAAGAGCCUUGGUUUUUUG [A2G C11G G42A C89G] | -4.87
GGACAAUCUGCCCUCAGAGCUCGAGAACAUCUUCGGAUUCAGAGGAGGCAGGCUUCGGAGGCGCGAUAGCGCCAACGUCCUCAACCUCCAAUGCAUCCCACCACCAGAUGAUGCCUGAAGAGGCUUGGUUUUUUG [A2G C3A G39U U59A A105C U106A C123G] | -2.32
GCCCAAUCUGCCCUCAGAGCUCGAGAACAUCUUCGGAUGCAGAGGAGGCAGGCUUCGGUGGCGCGAUAGCGCCAACGUCCUCAACCUCCAAUGCAUCCCACCACAUGAUGAAGCCUGAAGAGCCUUGGUUUUUUG [A2C U112A] | -0.421
GGCCAAUCUGCACUCAGAGCUCGAGAACAUCUUCGGAUGCAGAGGAGGCAGGCUUCGGUGGCGCGAUAGCGCCAACGUCCUCAAACUCCAAUGCAUCCCACCACAUGAUGAUCCCUGAAGAGCCUUGGUUUUUUG [A2G C12A C85A G113C] | -5.2
GGCCAAUCUGCACUCAGAGCUCGAGAACAUCUUCGGAUGCAGAGGAGGCAGGCUUCGGUGGCGCGAUAGCGCCAACGUCCUCAACCUCCAAUGCAUCCCACCACAUGAUGAUGCCUGAAGAGCCUUGGUUUUUUG [A2G C12A] | -0.474
GGCCAAUCUGCUCUCAGAGCUCGAGAACAUCUUCGGAUGCAGUUGAGGCAGGCUUCGGUGGCGCGAUAGCGCCAACGUCCUCAACCUCCAAUGCAUCCCACCACAUGAUGAUGCUUGAAGAGCCUUGGUUUUUUG [A2G C12U A43U G44U C115U] | -2.29
GGCCAAUGUGCCCUCAGAGCUUGAGAACAUCUUCGGAUGCAGAGGAGGCAGGCUUCGGUGGCGCGAUAGCGCCAACGUCCUCAACCUCCAAUGCAUCCCACCACAUGAUGAUGCCUGAAGAGCCUUGGUUUUUUG [A2G C8G C22U] | -5.08
GGCCAAUCUGCCAUCAGAGCUCGAGAACAUCUUCGGAUGCAGAGGAGGCAGGCUUCGGUGGCGCGAUAGCGUCAACGUCCUCAACCUCCAAUGCAUCCCACCACAUGAUGAUGCCUGAAGAGCCUUGGGUUUUUG [A2G C13A C72U U129G] | -2.36
GGCCAAUCUGCCUUCAGAGCUCGAGAACAUCUUCGGAUGCAGAGGUGGCAGGCUUCGGUGGAGCGAUAGCGCCAACGUCCUCAACAUCCAAUGCAUCCCACCACAUGAUGAUUCCUGAAUAGGCUUGGUUUUUUG [A2G C13U A46U C62A C86A G113U G120U C123G] | -6.73
GCCCAAUCUGCCCUCAGAGCUCGAGAACAUCUUCGGAUGCAGAGGAGGCAGGCUUCGGUGGCGCGAUAGCGCCAACGUCCUCAACCUCCAAUGCAACCCACCACAUGAUGAUGCCUGAAGAGCCUUGGUUUUUUG [A2C U96A] | -3.03
GGCCAAUCUGCCCUCAGAGCUCGAGAACAUCUUCGGAUGCUGAGGUGGCAGGCUUCGGUGGCGCGAUAGCGCCAACGUCCUCAACCUCCAAUGCAUCCCACCACAUGAUGAUGCCUGAAGAGCCUUGGUUUUUUG [A2G A41U A46U] | -3.37
GGCCACUCUGCCCUCAGAGCUCGAGAACAUCUUCGGAUGCAGAGGAGGCAGGCUUUGGUGGCGCGAUAGCGCCAACGUCCUCAACCUCCAAUGCAUCCCACCACAUGAUGAUGCCUGAAGAGCCUUGGUUUUUUG [A2G A6C C56U] | 0.182
GCCCAAUCUGCCCUCAGAGCUCGAGAACAUCUUCGGAUGCAGAGGAGGCAGGCUUCGGUGGCGCGAUAGCGCCAACGUCCUCAACCUCCAAUGCAUCCCACCACAUGAGGAUGUCUGAAGAGCCUUGGGUUUUUG [A2C U109G C114U U129G] | -5.24
GGCCCAUCUGACCUCAGAGCUCGAGAACAUCUUCGGAUGCAGAGGAGGCAGGCUUCGGUGGCGCGAUAGCUCCAACGUCCUCAACCUCCAAUGCAUCCUACCACAUGAUGAUGCCUGAAGAGCCUUGGUUUUUUG [A2G A5C C11A G71U C99U] | -3.65
GGCCAAUCUGCACUUAGAGCUCGAGAACAUCUUCGGAUGCAGAGUAGGCAGGCUUCGGUGGCGCGAUAGCGCCAACGUCCUCAACCUCCAAUGCAUCCCACCACAAGAUGAUGCCUGAAGAGCCUUGGUUUUUUG [A2G C12A C15U G45U U106A] | -3.92
GGCCAAUGUGCCCUCAGAGCUCGAGAACAUCUUCGGAUGCAGGGGAGGCAGGCUUCGGUGGCGCGAUACCGCCAACGUCCUCAACCUCCAAUGCAUCACACCACAUGAUGAUGCCUGAAGAGACUUGGUUUUUUG [A2G C8G A43G G69C C98A C123A] | -7.53
GGCCAAUCUGCCCUCAGAGCUCGAGAACAUCUUCGGAUGCAGAGGAGGCUGGCUUCCGUCGCGCGAUAGCGCCAACGUCCUCAAGCUCCAAUGCAUCCCACCACAUGAUGAUACCUGAAGAGCCUUGGUUUUUUG [A2G A50U G57C G60C C85G G113A] | -2.81
GGCCAAUAUGCCCUCAGAGCUCGAGAACAUCUUCGGAUGCAGAGGAGGCAGGCUUCGGUGGCACGAUAGCGCCAACGUCCUCAACCUCCAAUGCAUCCCACCACAUGAUAAUGCCUGAAGAGCCUUGGUUUUUUG [A2G C8A G63A G110A] | -3.11
GGCCAAUCUGCCCUCAGAGCUCGAGAGCAUCUUCGGAUGCAGAGGAGGCAGUCUUCGGUGGCCCGAUAGCGCCAACGUCCUCAACCCCCAAUGCAUCCCACCACAUGAUGAUGCCUGAAGAGCCUUGGUUUUUUG [A2G A27G G52U G63C U87C] | -2.6
GGCCAAUCUGCCCUCAGAGCUCGAGAACGUCUUCGGAUGCAGAGGAGGCAGGCUUCGGUGGCGCGAUAGCGCCAACGUCCUCAACCUCCAAUGCAUCCCACCACAUGAUGAUGCCUGAAAAGGCUUGGUUUUUUG [A2G A29G G120A C123G] | -0.383

Variant | polymerase ribozyme fitness (log ratio)
GGCCAAUCUGCCCUCAGAGCUCGAGAACAUCUUCGGAUGCAGAGGAGGCAGGCUUCGGUGGCGCGAUAGCGCCAACGUCCUCAACCUCCAAUGCAUCCCACCACAUGAUGCGUCCAGAAGAGCAUUGGUUUUUUG [A2G A111C U112G G113U U116A C124A] | -2.74
GGCCAAUCUGCCGUCAGAGCUCGAGAACAUCUUCGGAUGCAGAGGAGGCAGGCUUCGGUGGCGCGAUAGCGCCAACGUCCUCAACCUCCAAUGCAUCCCACCACAUGAUGAUGCCUGAAGAGCCUUGGUUUUUUG [A2G C13G] | 0.491
GGCCAAUCUGACCUCAGAGCUCGAGAACAUCUUCGGAUGCAGAGGAGGCAGGCUUCGGUGGCGCGAUAGCUCCAACGUCCUCAACCUCCUAUGCAUCCCACCACAUGAUGAUGCCUGAAGAGCCUUGGUAUUGUG [A2G C11A G71U A90U U130A U133G] | -2.92
GCCCAAUCUGCCCUCAGAGCUCGAGAACAUCUUCGGAUGCAGAGGAGGCAGGCUUCGGUGGCGCGAUAGCGCCAACGUCCUCAACCUCCAAUGCAUCCCACCACAUGAUGAAGCCUGAAGAGCCUUAGUUUUUUG [A2C U112A G127A] | -0.337
GCCCAAUCUGCCCUCAGAGCUCGAGAACAUCUUCGGAUGCAGAGGAGGCAGGCUUCGGUGGCGCGAUAGCGCCAACGUCCUCAACCUCCAAUGCAUCCCACCACAUGAUGAUGCCUGAAGAGCCUUGGUAUUUUG [A2C U130A] | -2.07
GGCCAAUCUGCCCUCAGAGCUCGAGAACAUCUUCGGAUGCCAAGGAGGCAGGCUUCGGUGGCGCGAUAGCGCCAACGUCCUGAACCUCAAAGGCAUCCCACCACAUGAUGAUGCCUGAAUAGCCUUGGUUUUUUG [A2G A41C G42A C82G C89A U92G G120U] | -5.77
GGCCAAUCUGCCAUCAGAGCUCGAGAACAUCUUCGGAUGCAGUGGAGGCAUGCUUCGGUGGCGUGAUAGCGCCAACGUCCUCUGCCUCCAAUGCAUCCCACCACAUGAUGAUGCCUGAAGAGCCUUGGUUUUUUG [A2G C13A A43U G51U C64U A83U A84G] | -6.26
GGCCAAUCUGCUCUCAGAGCUCGAGAACAUCUUCGGAUGCAGAGGAGGCAGGCUUCGGUGGCGCGGUAGCGCCAACGUACUCAACCUCCAAUGCAUCCCACCACAUGAUGAUGCCUGAAGAACCUUGGUUUUUUG [A2G C12U A66G C79A G122A] | -2.62
GGCCAAUCUGUCCUCAGAGCUCGAGAACAUCUUCGGAUGCAGAGGAGCCAGGCUUCGGUGGCGCGAUAGCGCCAACGUCCUCAACCUCCAAAGCAUCCCACCACAUGAUGAUGCCUGAAGAGCCUUGGUUUUUUG [A2G C11U G48C U92A] | -4.56
GGCAAACCUGCCCUCAGAGCUCGAGAACAUCUUCGGAUGCAGAGGACGCAGGCUUAGGUGGCGCGAUGGCGCCAACGUCCUCAACCUCCAAUGCAUCCAACCACAUGAUUAUGCGUCAAGAGCCUUGGAUUUUUG [A2G C4A U7C G47C C56A A68G C99A G110U C115G G117C U129A] | -7.47
GGCCAAUCUGCCCUCAGAGCUCGAGAACAUCUUCGGAUGCUGAGGAGGCAGGCUUCGGUGGCGCGAUAGCGCCAACGUCCUCAACCUCCAAUGCAUCCCACCACAUGAUGAUGCCUGAAUAGCCUUGGUUUUUUG [A2G A41U G120U] | -1.2
GGCCAAUCUGCCCUCAGAGCUCGAGAACAUCUUCGGAUGCAGAGGAGGCAGGCUUCGGUGGCGCGAUAGCGCCAACGUCCUCAACCUCCAAUGCAUCCCACCACAUGAUGAUGCCUGAAGAGCCUUGGUUUUUUG [A2G] | -0.0197
GGCCAGUAUGCCCUCAGAGCUCGAGAACAUCUUCGGAUGCAGAGGCGGCAGGCUUCGGUGGCGCGAUAGCGCCAACGUCCUCAACCCCCAAUGCAUCCCACCACAUGAUGAUGCCUGAAGAGCCUUGGUUUUUUG [A2G A6G C8A A46C U87C] | -0.00636
GGCCAAUGUGCCCUCAGAGCUCGAGAACAUCUUCGGAUGCAGAGGAGGCAGGCUUCGGUGGCGCGAUAGCGCCAACGUCCUCAACCUCCAAUGCAACCCACCACAUGAUGAUGCCUGAAGAGCCUUGGUUUUUUU [A2G C8G U96A G135U] | -1.73
GGCCAAUCUGCCUUCAGAGCUCGAGAACAUCUUCGGAUGCAGAGGAGGCAGGGUUCGGUGGCGCGAUAGCGGCAACGUCCUCAACCUCCAAUGCAUCCCACCACAUGAUGAUGCCUGAAGAGCCUUGGUUUUUUG [A2G C13U C53G C72G] | -0.413
GGCCAAUCUGCCGUCAGAGCUCGAGAACAUCUUCGGAUGCAGAGGAGGCAGGCUUCGGUGGCGCGAUAGCGCCAACGUCCUGAACCUCCAAUGCAUCCCACCACAUGAUGAUGCCUGAAGAGCCUUGGCUUUUUG [A2G C13G C82G U129C] | -1.79
GGCCAAUUUGCCCUCAGAGCUCGAGAACAUCUUCGGAUGCAGAGGAGGCAGGCUUCGGUGGCGCGAUAGCGCCAACGUCCUCAACCUCCAAUGCAUCCCACCACAUGAUGAUGCCUGAAGAGCCUUGGUUUUUUG [A2G C8U] | 0.157
GGCCAAUCUGUCCUCAGAGCUGGAGAACAUCUUCGGAUGCAGAGGAGGCAGGCUUCGGUGGUGCGAUAGCGCCAACGUCCUCAACCUCCAAUGCAUCCCACCACAUGAUGAUGCCUGAAGAGCCUUGGUAUUUUG [A2G C11U C22G C62U U130A] | -4.9
GGCCAAUCUGCCCUCAGAGCUCGAGAACAUCUUCGGAUGCAGAGGAGGCAGGCUUCGGUGGCGCGAUAGCGCCAACGUCCUCAACCUCCAUUGCAGCCCACCACAUGAUGAUGCCUGAAUAGCCUUGGUUUUUUG [A2G A91U U96G G120U] | -2.53
GGCCAAUCUGCCUUCAGAGCUCGAGAACAUCUUCGGAUGCCGAGGAGCCAGGCUUCGGUGGCGCGAUAGCGCCAACGGCCUCAACCUCCAAUGCAUCCCACCACAUGAUGGUGCCUGAAGAGCCUUGGUUUUUUG [A2G C13U A41C G48C U78G A111G] | -1.71
GGCCAAUCUGCCAUCAGAGCUCGAGAACAUCUUCGGAUGCAGAGGAGGCAGGCUUCGGUGGCGCGAUUGCGCCAACGUCCUCAAACUCCAAUGCAUCCCACCUCAUGAUGAUGCCUUAAGAGCCUUGGUUUUUUG [A2G C13A A68U C85A A103U G117U] | -6.8
